# Reference: IntAct's records for PubMed 29892012
# B1: Late cornified envelope protein 1B (Homo sapiens), Q5T7P3 (parent)
# chain: MSCQQNQQQCQPPPKCIPKCPPKCLTPRCPPKCPPKCPPVSSCCSVSSGGCCGSSSGGSCGSSSGGCCSSGGGGCCLSHHRRRRSHCHRPQSSGCCSQPSGGSSCCGGGSGQHSGGCC
# partner: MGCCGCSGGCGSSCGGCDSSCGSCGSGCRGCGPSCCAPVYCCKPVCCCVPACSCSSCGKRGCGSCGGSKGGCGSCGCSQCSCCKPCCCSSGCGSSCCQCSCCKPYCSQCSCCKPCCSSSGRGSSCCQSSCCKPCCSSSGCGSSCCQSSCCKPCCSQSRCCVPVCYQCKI
# B2: E3 ubiquitin-protein ligase LNX (Homo sapiens), Q8TBB1 (parent)
# chain: MNQPESANDPEPLCAVCGQAHSLEENHFYSYPEEVDDDLICHICLQALLDPLDTPCGHTYCTLCLTNFLVEKDFCPMDRKPLVLQHCKKSSILVNKLLNKLLVTCPFREHCTQVLQRCDLEHHFQTSCKGASHYGLTKDRKRRSQDGCPDGCASLTATAPSPEVSAAATISLMTDEPGLDNPAYVSSAEDGQPAISPVDSGRSNRTRARPFERSTIRSRSFKKINRALSVLRRTKSGSAVANHADQGRENSENTTAPEVFPRLYHLIPDGEITSIKINRVDPSESLSIRLVGGSETPLVHIIIQHIYRDGVIARDGRLLPGDIILKVNGMDISNVPHNYAVRLLRQPCQVLWLTVMREQKFRSRNNGQAPDAYRPRDDSFHVILNKSSPEEQLGIKLVRKVDEPGVFIFNVLDGGVAYRHGQLEENDRVLAINGHDLRYGSPESAAHLIQASERRVHLVVSRQVRQRSPDIFQEAGWNSNGSWSPGPGERSNTPKPLHPTITCHEKVVNIQKDPGESLGMTVAGGASHREWDLPIYVISVEPGGVISRDGRIKTGDILLNVDGVELTEVSRSEAVALLKRTSSSIVLKALEVKEYEPQEDCSSPAALDSNHNMAPPSDWSPSWVMWLELPRCLYNCKDIVLRRNTAGSLGFCIVGGYEEYNGNKPFFIKSIVEGTPAYNDGRIRCGDILLAVNGRSTSGMIHACLARLLKELKGRITLTIVSWPGTFL
# B3: E3 ubiquitin-protein ligase LNX (Homo sapiens), Q8TBB1 (parent)
# chain: B2 chain
# partner: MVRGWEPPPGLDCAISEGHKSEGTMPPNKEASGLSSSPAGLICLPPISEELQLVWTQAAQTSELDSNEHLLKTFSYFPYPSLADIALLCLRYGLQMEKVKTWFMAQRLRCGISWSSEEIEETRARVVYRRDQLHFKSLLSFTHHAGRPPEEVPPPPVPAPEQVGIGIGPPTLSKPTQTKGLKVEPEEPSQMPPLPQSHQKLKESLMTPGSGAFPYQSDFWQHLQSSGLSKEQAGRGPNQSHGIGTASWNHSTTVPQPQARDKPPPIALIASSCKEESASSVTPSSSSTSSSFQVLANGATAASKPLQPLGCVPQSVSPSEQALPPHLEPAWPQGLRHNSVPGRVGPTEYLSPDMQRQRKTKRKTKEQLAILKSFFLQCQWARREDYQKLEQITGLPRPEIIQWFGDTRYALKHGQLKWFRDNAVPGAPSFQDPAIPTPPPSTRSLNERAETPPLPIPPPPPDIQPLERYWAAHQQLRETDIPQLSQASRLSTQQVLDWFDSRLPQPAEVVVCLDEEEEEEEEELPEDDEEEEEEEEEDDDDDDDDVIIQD
# Variants of: B1
# Settings: with kra59_human KRTAP5-9, P26371
row,effect of a mutation on the interaction,Variant
1,disrupting interaction strength,C16Y

# Variants of: B2
# Settings: with srsf1_human SRSF1, Q07955
# Chain of srsf1_human SRSF1, Q07955 (Q07955 whole entry): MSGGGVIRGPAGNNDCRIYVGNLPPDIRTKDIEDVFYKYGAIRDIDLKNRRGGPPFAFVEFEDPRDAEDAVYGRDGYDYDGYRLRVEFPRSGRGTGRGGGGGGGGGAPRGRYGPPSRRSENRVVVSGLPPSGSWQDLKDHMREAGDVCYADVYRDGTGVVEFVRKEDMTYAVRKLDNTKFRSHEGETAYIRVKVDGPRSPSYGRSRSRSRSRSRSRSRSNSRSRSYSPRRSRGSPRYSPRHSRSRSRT
row,effect of a mutation on the interaction,Variant
1,disrupting interaction strength,E295K

# Variants of: B2
# Settings: with pmgt1_human POMGNT1, Q8WZA1
# Chain of pmgt1_human POMGNT1, Q8WZA1 (Q8WZA1 whole entry): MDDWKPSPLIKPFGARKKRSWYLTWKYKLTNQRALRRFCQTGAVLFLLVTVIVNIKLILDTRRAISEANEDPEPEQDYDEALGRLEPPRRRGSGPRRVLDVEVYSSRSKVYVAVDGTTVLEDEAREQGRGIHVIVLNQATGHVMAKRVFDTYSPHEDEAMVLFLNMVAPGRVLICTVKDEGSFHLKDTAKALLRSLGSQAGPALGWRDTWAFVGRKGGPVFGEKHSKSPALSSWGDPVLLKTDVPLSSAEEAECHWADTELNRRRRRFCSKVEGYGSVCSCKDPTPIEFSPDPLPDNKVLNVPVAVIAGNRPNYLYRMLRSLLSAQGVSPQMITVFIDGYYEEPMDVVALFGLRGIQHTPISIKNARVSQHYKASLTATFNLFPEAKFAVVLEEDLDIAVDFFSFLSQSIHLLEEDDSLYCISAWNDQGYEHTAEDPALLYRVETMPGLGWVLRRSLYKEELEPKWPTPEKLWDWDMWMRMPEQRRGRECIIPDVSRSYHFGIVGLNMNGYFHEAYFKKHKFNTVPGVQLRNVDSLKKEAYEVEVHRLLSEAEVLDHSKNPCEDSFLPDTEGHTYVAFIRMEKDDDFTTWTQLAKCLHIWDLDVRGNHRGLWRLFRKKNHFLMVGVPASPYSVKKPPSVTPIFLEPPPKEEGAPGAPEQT
row,effect of a mutation on the interaction,Variant
1,disrupting interaction strength,E295K

# Variants of: B2
# Settings: with nagk_human NAGK
row,effect of a mutation on the interaction,Variant
1,disrupting interaction strength,E295K

# Variants of: B2
# Settings: with cep72_human CEP72, Q9P209
# Chain of cep72_human CEP72, Q9P209 (Q9P209 whole entry): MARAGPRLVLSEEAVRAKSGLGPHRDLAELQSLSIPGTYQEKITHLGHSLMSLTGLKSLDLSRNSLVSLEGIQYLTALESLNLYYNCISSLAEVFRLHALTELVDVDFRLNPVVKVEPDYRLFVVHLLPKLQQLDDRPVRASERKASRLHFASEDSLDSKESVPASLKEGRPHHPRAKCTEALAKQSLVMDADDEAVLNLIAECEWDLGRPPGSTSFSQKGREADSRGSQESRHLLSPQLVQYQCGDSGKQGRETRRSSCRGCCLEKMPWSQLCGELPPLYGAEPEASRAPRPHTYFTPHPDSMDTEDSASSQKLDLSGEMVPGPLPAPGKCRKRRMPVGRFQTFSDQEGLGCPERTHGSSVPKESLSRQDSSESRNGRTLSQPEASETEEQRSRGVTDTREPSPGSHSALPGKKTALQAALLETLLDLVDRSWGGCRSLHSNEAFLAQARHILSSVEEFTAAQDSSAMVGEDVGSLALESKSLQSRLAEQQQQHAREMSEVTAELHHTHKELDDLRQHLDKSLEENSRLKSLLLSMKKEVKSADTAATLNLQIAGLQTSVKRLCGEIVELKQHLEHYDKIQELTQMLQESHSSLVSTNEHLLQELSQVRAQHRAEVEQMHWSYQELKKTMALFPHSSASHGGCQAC
row,effect of a mutation on the interaction,Variant
1,disrupting interaction strength,E295K

# Variants of: B2
# Settings: with mk09_human MAPK9, P45984
row,effect of a mutation on the interaction,Variant
1,with no effect,E295K

# Variants of: B2
# Settings: with grb2_human GRB2, P62993
row,effect of a mutation on the interaction,Variant
1,disrupting interaction strength,E295K

# Variants of: B2
# Settings: with ldoc1_human LDOC1, O95751
# Chain of ldoc1_human LDOC1, O95751 (O95751 whole entry): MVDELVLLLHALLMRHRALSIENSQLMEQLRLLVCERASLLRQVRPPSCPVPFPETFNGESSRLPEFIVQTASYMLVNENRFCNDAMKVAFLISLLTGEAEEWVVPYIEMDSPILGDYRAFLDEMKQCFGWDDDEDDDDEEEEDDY
row,effect of a mutation on the interaction,Variant
1,disrupting interaction strength,E295K

# Variants of: B2
# Settings: with kcd17_human KCTD17, Q8N5Z5
# Chain of kcd17_human KCTD17, Q8N5Z5 (Q8N5Z5 whole entry): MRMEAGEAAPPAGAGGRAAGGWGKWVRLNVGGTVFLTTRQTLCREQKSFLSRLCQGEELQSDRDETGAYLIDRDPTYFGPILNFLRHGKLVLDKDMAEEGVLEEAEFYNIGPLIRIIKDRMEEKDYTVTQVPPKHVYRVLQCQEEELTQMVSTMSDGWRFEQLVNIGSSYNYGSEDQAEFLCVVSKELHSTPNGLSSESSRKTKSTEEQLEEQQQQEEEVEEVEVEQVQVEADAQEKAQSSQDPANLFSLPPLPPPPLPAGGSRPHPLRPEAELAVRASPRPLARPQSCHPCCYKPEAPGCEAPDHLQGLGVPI
row,effect of a mutation on the interaction,Variant
1,disrupting interaction strength,E295K

# Variants of: B2
# Settings: with rpia_human RPIA
row,effect of a mutation on the interaction,Variant
1,disrupting interaction strength,E295K

# Variants of: B2
# Settings: with tera_human VCP
row,effect of a mutation on the interaction,Variant
1,disrupting interaction strength,E295K

# Variants of: B2
# Settings: with KRT15, P19012
# Chain of KRT15, P19012 (P19012 whole entry): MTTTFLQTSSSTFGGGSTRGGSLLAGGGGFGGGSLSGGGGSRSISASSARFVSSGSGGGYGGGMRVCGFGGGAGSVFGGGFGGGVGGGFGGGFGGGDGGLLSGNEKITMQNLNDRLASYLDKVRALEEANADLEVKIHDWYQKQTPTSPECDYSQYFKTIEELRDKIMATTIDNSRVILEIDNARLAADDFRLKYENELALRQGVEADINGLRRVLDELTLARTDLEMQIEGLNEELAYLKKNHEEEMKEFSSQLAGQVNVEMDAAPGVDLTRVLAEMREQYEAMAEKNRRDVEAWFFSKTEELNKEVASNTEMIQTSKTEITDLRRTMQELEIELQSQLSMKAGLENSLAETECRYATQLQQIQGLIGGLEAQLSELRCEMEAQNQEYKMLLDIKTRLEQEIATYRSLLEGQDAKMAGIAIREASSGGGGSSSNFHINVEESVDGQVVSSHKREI
row,effect of a mutation on the interaction,Variant
1,disrupting interaction strength,E295K

# Variants of: B2
# Settings: with rop1a_human ROPN1, Q9HAT0
# Chain of rop1a_human ROPN1, Q9HAT0 (Q9HAT0 whole entry): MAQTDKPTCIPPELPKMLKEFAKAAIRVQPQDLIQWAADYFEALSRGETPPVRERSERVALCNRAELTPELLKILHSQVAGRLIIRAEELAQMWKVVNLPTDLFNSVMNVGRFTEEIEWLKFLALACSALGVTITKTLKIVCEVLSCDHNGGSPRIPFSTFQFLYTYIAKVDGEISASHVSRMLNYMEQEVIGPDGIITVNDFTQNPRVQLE
row,effect of a mutation on the interaction,Variant
1,disrupting interaction strength,E295K

# Variants of: B2
# Settings: with nt2na_human NOTCH2NLA
row,effect of a mutation on the interaction,Variant
1,disrupting interaction strength,E295K

# Variants of: B2
# Settings: with mt21a_human METTL21A
row,effect of a mutation on the interaction,Variant
1,disrupting interaction strength,E295K

# Variants of: B2
# Settings: with zbt8a_human ZBTB8A
row,effect of a mutation on the interaction,Variant
1,disrupting interaction strength,E295K

# Variants of: B2
# Settings: with dnpep_human DNPEP
row,effect of a mutation on the interaction,Variant
1,disrupting interaction strength,E295K

# Variants of: B2
# Settings: with clk2_human CLK2, P49760
# Chain of clk2_human CLK2, P49760 (P49760 whole entry, looked up): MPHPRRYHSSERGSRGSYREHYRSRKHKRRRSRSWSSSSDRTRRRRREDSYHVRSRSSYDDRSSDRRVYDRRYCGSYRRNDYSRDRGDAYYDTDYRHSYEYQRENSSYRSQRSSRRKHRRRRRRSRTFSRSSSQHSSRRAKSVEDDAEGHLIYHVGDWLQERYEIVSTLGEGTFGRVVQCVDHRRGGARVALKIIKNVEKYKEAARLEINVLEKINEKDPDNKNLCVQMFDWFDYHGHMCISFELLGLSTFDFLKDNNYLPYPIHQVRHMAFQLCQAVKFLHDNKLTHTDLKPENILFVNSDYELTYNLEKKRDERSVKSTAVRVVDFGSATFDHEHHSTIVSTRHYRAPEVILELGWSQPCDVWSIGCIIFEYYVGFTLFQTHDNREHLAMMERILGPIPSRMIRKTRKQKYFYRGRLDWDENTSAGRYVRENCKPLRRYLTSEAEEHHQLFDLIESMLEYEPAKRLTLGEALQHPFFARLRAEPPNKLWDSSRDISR
row,effect of a mutation on the interaction,Variant
1,disrupting interaction strength,E295K

# Variants of: B2
# Settings: with sat1_human SAT1, P21673
# Chain of sat1_human SAT1, P21673 (P21673 whole entry): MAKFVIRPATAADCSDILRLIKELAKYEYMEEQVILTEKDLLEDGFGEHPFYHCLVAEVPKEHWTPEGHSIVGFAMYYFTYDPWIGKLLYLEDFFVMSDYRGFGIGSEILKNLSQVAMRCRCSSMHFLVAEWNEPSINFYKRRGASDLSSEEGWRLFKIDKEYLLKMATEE
row,effect of a mutation on the interaction,Variant
1,disrupting interaction strength,E295K

# Variants of: B2
# Settings: with neca2_human NECAB2, Q7Z6G3
# Chain of neca2_human NECAB2, Q7Z6G3 (Q7Z6G3 whole entry): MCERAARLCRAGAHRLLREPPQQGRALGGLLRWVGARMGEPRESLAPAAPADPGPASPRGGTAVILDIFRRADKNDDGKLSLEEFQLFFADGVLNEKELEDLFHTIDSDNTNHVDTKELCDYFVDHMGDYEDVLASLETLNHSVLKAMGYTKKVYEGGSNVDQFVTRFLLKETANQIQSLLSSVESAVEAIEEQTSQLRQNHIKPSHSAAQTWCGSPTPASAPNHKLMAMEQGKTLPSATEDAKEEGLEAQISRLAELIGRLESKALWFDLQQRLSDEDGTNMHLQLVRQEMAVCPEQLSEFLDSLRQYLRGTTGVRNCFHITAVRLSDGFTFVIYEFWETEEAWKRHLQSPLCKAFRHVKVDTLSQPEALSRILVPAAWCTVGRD
row,effect of a mutation on the interaction,Variant
1,disrupting interaction strength,E295K

# Variants of: B2
# Settings: with tri23_human TRIM23, P36406
# Chain of tri23_human TRIM23, P36406 (P36406 whole entry): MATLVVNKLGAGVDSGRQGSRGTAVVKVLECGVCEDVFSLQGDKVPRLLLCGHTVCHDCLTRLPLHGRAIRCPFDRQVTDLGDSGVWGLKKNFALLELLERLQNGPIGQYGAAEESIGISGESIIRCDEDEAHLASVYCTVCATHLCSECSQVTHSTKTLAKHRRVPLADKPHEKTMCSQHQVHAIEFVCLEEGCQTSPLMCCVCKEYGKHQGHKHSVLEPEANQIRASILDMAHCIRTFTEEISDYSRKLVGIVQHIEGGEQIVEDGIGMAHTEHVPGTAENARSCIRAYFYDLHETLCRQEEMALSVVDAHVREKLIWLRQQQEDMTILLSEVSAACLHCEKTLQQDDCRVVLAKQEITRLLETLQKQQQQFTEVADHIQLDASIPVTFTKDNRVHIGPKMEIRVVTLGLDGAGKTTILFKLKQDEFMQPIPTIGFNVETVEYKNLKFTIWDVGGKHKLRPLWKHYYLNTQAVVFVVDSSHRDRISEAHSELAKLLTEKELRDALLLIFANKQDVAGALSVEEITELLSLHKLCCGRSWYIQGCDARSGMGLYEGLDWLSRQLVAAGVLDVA
row,effect of a mutation on the interaction,Variant
1,disrupting interaction strength,E295K

# Variants of: B2
# Settings: with mr1l1_human MRFAP1L1, Q96HT8
# Chain of mr1l1_human MRFAP1L1, Q96HT8 (Q96HT8 whole entry): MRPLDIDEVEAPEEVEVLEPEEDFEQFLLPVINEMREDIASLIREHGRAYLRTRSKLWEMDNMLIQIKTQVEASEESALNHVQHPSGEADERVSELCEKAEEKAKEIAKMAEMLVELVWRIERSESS
row,effect of a mutation on the interaction,Variant
1,disrupting interaction strength,E295K

# Variants of: B2
# Settings: with ndk7_human NME7, Q9Y5B8
# Chain of ndk7_human NME7, Q9Y5B8 (Q9Y5B8 whole entry): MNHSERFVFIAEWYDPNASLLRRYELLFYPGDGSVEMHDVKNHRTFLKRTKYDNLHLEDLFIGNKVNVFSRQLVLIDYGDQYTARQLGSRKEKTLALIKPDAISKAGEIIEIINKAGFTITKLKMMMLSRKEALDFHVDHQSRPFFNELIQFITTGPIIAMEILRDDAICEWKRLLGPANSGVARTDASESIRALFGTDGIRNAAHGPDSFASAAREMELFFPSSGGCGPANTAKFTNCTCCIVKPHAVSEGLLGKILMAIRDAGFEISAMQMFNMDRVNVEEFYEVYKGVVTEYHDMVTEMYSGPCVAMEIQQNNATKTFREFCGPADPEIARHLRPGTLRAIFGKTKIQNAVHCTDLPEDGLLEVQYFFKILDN
row,effect of a mutation on the interaction,Variant
1,disrupting interaction strength,E295K

# Variants of: B3
# Settings: with homez_human HOMEZ
row,effect of a mutation on the interaction,Variant
1,disrupting interaction strength,E295K
